The chains are these.
B1: LRRK2 RocCOR tandem domain (LexA-BD bait, wild type) [human] / itself (parent complex)
chain: KAVPYNRMKLMIVGNTGSGKTTLLQQLMKTKKSDLGMQSATVGIDVKDWPIQIRDKRKRDLVLNVWDFAGREEFYSTHPHFMTQRALYLAVYDLSKGQAEVDAMKPWLFNIKARASSSPVILVGTHLDVSDEKQRKACMSKITKELLNKRGFPAIRDYHFVNATEESDALAKLRKTIINESLNFKIRDQLVVGQLIPDCYVELEKIILSERKNVPIEFPVIDRKRLLQLVRENQLQLDENELPHAVHFLNESGVLLHFQDPALQLSDLYFVEPKWLCKIMAQILTVKVEGCPKHPKGIISRRDVEKFLSKKRKFPKNYMSQYFKLLEKFQIALPIGEEYLLVPSSLSDHRPVIELPHCENSEIIIRLYEMPYFPMGFWSRLINRLLEISPYMLSGRERALRPNRMYWRQGIYL

The values that follow come from PMC3887213 (2013).

Variants of B1 are the subject of the assay. Description: quantitative yeast two-hybrid (Q-YTH); n = 6; read off a plot.
Regarding KAVPYNRMKLMIVGNTGSGKTTLLQQLMKTKKSDLGMQSATVGIDVKDWPIQIRDKRKRDLVLNVWDFAGREEFYSTHPHFMTQRALYLAVYDLSKGQAEVDAMKPWLFNIKARASSSPVILVGTHLDVSDEKQRKACMSKITKELLNKRGFPAIRDYHFVNAAEESDALAKLRKTIINESLNFKIRDQLVVGQLIPDCYVELEKIILSERKNVPIEFPVIDRKRLLQLVRENQLQLDENELPHAVHFLNESGVLLHFQDPALQLSDLYFVEPKWLCKIMAQILTVKVEGCPKHPKGIISRRDVEKFLSKKRKFPKNYMSQYFKLLEKFQIALPIGEEYLLVPSSLSDHRPVIELPHCENSEIIIRLYEMPYFPMGFWSRLINRLLEISPYMLSGRERALRPNRMYWRQGIYL [chain 1 T164A], the percent of parent is approximately 110%.

Turning to KAVPYNRMKLMIVGNTGSGKTTLLQQLMKTKKSDLGMQSATVGIDVKDWPIQIRDKRKRDLVLNVWDFAGREEFYSTHPHFMTQRALYLAVYDLSKGQAEVDAMKPWLFNIKARASSSPVILVGTHLDVSDEKQRKACMSKITKELLNKRGFPAIRDYHFVNADEESDALAKLRKTIINESLNFKIRDQLVVGQLIPDCYVELEKIILSERKNVPIEFPVIDRKRLLQLVRENQLQLDENELPHAVHFLNESGVLLHFQDPALQLSDLYFVEPKWLCKIMAQILTVKVEGCPKHPKGIISRRDVEKFLSKKRKFPKNYMSQYFKLLEKFQIALPIGEEYLLVPSSLSDHRPVIELPHCENSEIIIRLYEMPYFPMGFWSRLINRLLEISPYMLSGRERALRPNRMYWRQGIYL [chain 1 T164D], the percent of parent is approximately 98%.

Consider KAVPYNRMKLMIVGNDGSGKTTLLQQLMKTKKSDLGMQSATVGIDVKDWPIQIRDKRKRDLVLNVWDFAGREEFYSTHPHFMTQRALYLAVYDLSKGQAEVDAMKPWLFNIKARASSSPVILVGTHLDVSDEKQRKACMSKITKELLNKRGFPAIRDYHFVNATEESDALAKLRKTIINESLNFKIRDQLVVGQLIPDCYVELEKIILSERKNVPIEFPVIDRKRLLQLVRENQLQLDENELPHAVHFLNESGVLLHFQDPALQLSDLYFVEPKWLCKIMAQILTVKVEGCPKHPKGIISRRDVEKFLSKKRKFPKNYMSQYFKLLEKFQIALPIGEEYLLVPSSLSDHRPVIELPHCENSEIIIRLYEMPYFPMGFWSRLINRLLEISPYMLSGRERALRPNRMYWRQGIYL [chain 1 T16D], for which the percent of parent was approximately 97%.

Take KAVPYNRMKLMIVGNAGSGKTTLLQQLMKTKKSDLGMQSATVGIDVKDWPIQIRDKRKRDLVLNVWDFAGREEFYSTHPHFMTQRALYLAVYDLSKGQAEVDAMKPWLFNIKARASSSPVILVGTHLDVSDEKQRKACMSKITKELLNKRGFPAIRDYHFVNATEESDALAKLRKTIINESLNFKIRDQLVVGQLIPDCYVELEKIILSERKNVPIEFPVIDRKRLLQLVRENQLQLDENELPHAVHFLNESGVLLHFQDPALQLSDLYFVEPKWLCKIMAQILTVKVEGCPKHPKGIISRRDVEKFLSKKRKFPKNYMSQYFKLLEKFQIALPIGEEYLLVPSSLSDHRPVIELPHCENSEIIIRLYEMPYFPMGFWSRLINRLLEISPYMLSGRERALRPNRMYWRQGIYL [chain 1 T16A]: the percent of parent was approximately 93%.
